In the nanobody polyreactivity screen of Harvey et al. (2022):

Assay: yeast display, Sf9 membrane polyspecificity reagent, FACS + sequencing; frameworks hold sequencing errors
Procedure, shortened: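 A nanobody's polyreactivity label depends on the gate it was sorted from. Yeast display cells were stained with 10% biotinylated, detergent-solubilized Sf9 membrane reagent for 1 hour at 4 °C, enriched on streptavidin microbeads and sorted by FACS. The low and high (top ~1%) gates were set on anti-HA fluorescence for expression and streptavidin fluorescence for reagent binding.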

Sequence	polyreactivity (PSR sort gate)
QVQLVESGGGLVQAGGSLRLSCAASGLIFKYNVMGWYRQAPGKERELVAAITKRGGSTYYADSVKGRFTISRDNAKNTVYLQMNSLKPEDTAVYYCAARPVNTVRPFDYWGQGTQVTVSS	high polyreactivity
QVQLVESGGGLVQAGGSLRLSCAASGSTFHSYAMGWYRQAPGKERELVAAISSSGGSTYYADSVKGRFTISRDNAKNTVYLQMNSLKPEDTAVYYCAADWRTKGYDSLGQGTQVTVSS	high polyreactivity
QVQLVESGGGLVQAGGSLRLSCAASGIIFGTNAMGWSRQAPGKERELVAGITSSGDSTYYADSVKGRFTISRDNAKNTVYLQMNSLKPEDTAVYYCARDIRTREFDSWGQGTQVTVSS	low polyreactivity
QVQLVESGGGLVQAGGSLRLSCDASGSIFSKYAMGWYRQAPGKERELVAAISWSGTSTYYADSVKGRFTISRDNAKNTVYLQMNSLKPEDTAVYYCAASSPRSLSLLGYWGQGTQVTVSS	low polyreactivity
QVQLVESGGGLVQAGGSLRLSCAASGSTFKYYAKGWYRQAPGKERELVAAISASGGTTYYADSVKGRFTISRDNAKNTVYLQMNSLKPEDTAVYYCAARYLTTFSRTDMEYWGQGTQVTVSS	low polyreactivity
QVHLVESGGGLVQAGGSLRISCAASGFTFRYNAMGWNRQAPGKERELVAAISRGTITNYADSVKGRFTISRDNAKNTVYLQMNSLKPEDTAVYYCAARYPGHFRFYYWGQGTQVTVSS	high polyreactivity
QVQLVESGGGLVQAGGSLRLSCAASGSIFDNAMGWYRQAPGKERELVASIDQSGGSTYYADSVMGRFTISRDNAKNTVYLQMNSLKPEDTAVYYCAADSFTGYPYEMDYWGQGTQVTVSS	low polyreactivity
QVQLVESGGGLVQAGGSLRLSCAASGRIFSRNAMGWYRQAPGKERELVAAISRSGTSTYYADSVKGRFTISRDNAKNTVYLQMNSLKPEDTAVYYCAAYPYYDRDYWGQGTQVTVSS	low polyreactivity
QVQRVESGGGLVQAGGSLRLTCAASGYTSLWYGMGWSRQAPGKERDLVAAISSSGNTNYADSVKGRFTISRDNAKNTVYLQMNSLKPEDTAVYYCAVELKQVTPGLGYITLDYWGQGTQVTVSS	low polyreactivity
QVQLVESGGGLVQAGGSLRLSCAASGRIFYYNVMGWYRQAPGKERELVADIRSGDRTYYADSVKGRFTISRDNAKNTVYLQMNSLKPEDTAVYYCAADGWYRRGYYYWGQGTQVTVSS	low polyreactivity
QVQLVESGGGLVQAGGSLRLSCAASGNIFGVNAMGWYRQAPGKERELVAAITCSDSSTNYADSVKGRFTISRDNAKNTVYLQMNSLKPEDTAVYYCATRVWRSAQSRWYGYDYWGQGTQVTVSS	high polyreactivity
QVQLVESGGGLVQAGGRLRLSCAASGIIFRWYTMGWYRQAPGKERELVAAISTSTGSTYYADSVKGRFTISRDNAKNTVYLQMNSLKPEDSAVYYCAAVYAYWNYESYYWGQGTQVTVSS	high polyreactivity
QVQLVESGGGLVQAGGSLRISCAASGFIFDGYAMGWYRQAPGKERELVAAITYSGGSTYYADSLKGRFTISRDNAKNTVYLQMNRLKPEDTAVYYCNAEYSSFSVVQKDSDMDYWGQGTQVTVSS	low polyreactivity
QVQLVESGGGLVQAGGSLRLSCAASGLILRKYAMGWYRQAPGKEREFVAAITQTGSRTYYADSVKVRFTISRDNAKYTVYFQMNSLIPEDTAVYYCNAVNYRSSRDSGYWGQGTQVTVSS	high polyreactivity
QVQLVESGGGLVQAGGSLRLSCAASGFTFGDYAMGWYRQAHGKERELVAAINGRSGSTYYPDSVNGRFTISRDNAKNTVYLQMNSLKPEDTAVYYCATRWRLPSRSNFDYWGQGTQVTLSS	low polyreactivity
QVQLVESGGGLVQAGGSLRLSCAASGSIFDYNAMGWYRQAPGKERELVAAITSTDSTYADSVKGRFTISRDNAKNTVYLQMNSLKPEDTAVYYCAAEDVIYYLTGQWREYDYWGQGTQVTVSS	low polyreactivity
QVQLVESGGGLVQAGGSLRLSCAASGRIFNANAMGWYRPAPGKESELVAAISSSGGSTYYSDSVKGRFTISRDNAKNTVYLHMNSLKPEDTAVYYCKDEWGWRYSSDFDYWGQGTQVTVSS	low polyreactivity
QVQLVESGGGLVQAGGRLRLSCAASGFIFYDYAMGWYRQAPGKERELVAVITSGGSTYYADSVKGRFTISRDNAKNTVYLQMNSLKPEDTAVYYCNADWVFTWYDYPNDKYDYWGQGTQVTVSS	low polyreactivity
QVQLVESGGGLVQAGGSLRLSCAASGLIFSVNAMGWYRQAPGKERELVAAITWSSGRTYYADSVKGRFTISRDNAKNTVYLQMNSLKPEDTAVYYCAAVSYWYGQMYYWGHGTQVTVSS	high polyreactivity
QVQLVESCGGLVQAGGSLRLSCAASGSTFAGYVMGWYRQAPGKERQFVAAISTSGGRTYYADSVKGRFTISRDNAKNTVYLQMNSLKPEDTAVYYCAARSVTYGGLGLYGYWGQGTQVTVSS	high polyreactivity
QVQLVESGGGLVQAGGSLRLSCAASGSICERYAMGWYRQAPGKERELVAAISWRGTRTFYADSVKGRFTISRDNAKNTVYLQMNSLKPEDTAVYYCAADSRPPKYDYWGQGTQVTVSS	high polyreactivity
QVQLVESGGGLVQAGGSLRLSCAASGSTFRSYAMGWYRQAPGKERELVAVISKRGGSTYYADSVKGRFTISRDNAKNTVYLQMNSLKPEDTAVYYCAARPGPYWTVTFRSPKYYYWGQGTQVTVSS	high polyreactivity

Sequence	polyreactivity (PSR sort gate)
QVQLVESGGGLVQAGGSLRLSCDASGSTFNANAMGWYRQAPWKERVLVAAISWNGGRTYYADSVKGRFTISRDNAKNTVYLQMNSLKPEDTAVYYCALVYTAGRNYYYWGQGTQVTVSS	high polyreactivity
QVQLVESGGGLVQAGGSLRLSCAASGRIFYSNAMGWYRQAPGKERELVAANTSGGNTYYADSVKGRFTISRDNAKNTVYLLMNSLKPEDTAVYYCAADHYWRRSGFGYWGQGTQVTVSS	low polyreactivity
QVQLVESGGGLVQAGGSLRLSCAASGYIFRSNAMGWYRQAPGKERELVAAISGGGRTNYADSVKGRFTISRDNAKNTVYLQMNSLKPEDTAVYYCAAGGYYQRTRGYWGQATQVTVSS	high polyreactivity
QVQLVESGGGLVQAGGSLRLSCAASGSPFRGYAMGWYRLAPGKEREFVAAISRRGGTTYYADSVKARFTISRDNAKNTGYLQMNSLKPEDTAVYYCNKVYYQHYLPVDYWGQGTQVTVSS	high polyreactivity
QVQLVESGGGLVQAGGSLRLSCAASGFIFGTNAMGWYRQAPGKERELVAAISIGDSTYYADSVKGRFTISRDNAKNTVYVQKNSLKPEDTAVYYCNARAYSIYLLQKTYAFNYWGQGTQVTVSS	low polyreactivity
QVQLVESGGGLVQAGGSLRLSCAASGSILWYYAMGWDRQAPGKERELVATITSGGSTYYADSVKGRFTISRDNAKNSVYLQMNSLKPEDTAVYYCNADLAVDEYDYWGQGTQVTVSS	low polyreactivity
QVQLVESGGGLVQAGGSLRLSCAASGFTFSSNAMGWSRPAPGKERELVAGITWSGGSTYYADSVKGRFTISRDNAKNTVYLQMNRLKPEDTAVYYCNFRYNASQYDYVYWGQGTQVTVSS	low polyreactivity
QVQLVESRGGLVLAGGSLRLSCAASGSIFPSYAMGWYRQAPGKERELVASISYRGGSTYYADSVKGRFTISRDNAKNTVYLQMNSLKPEDTAVYYCAATKERYYGWSRLTGYYRGNYWGQGTQVTVSS	high polyreactivity
QDQLVESGGGLVQAGGSLSLSCAASGSIFETYDMGWYRQAPGKERELVAAISLSGGSTYYADSVKGRFTISRDNAKNTVYLQMYSLKPEDTAVYYCASDTYYVSYGYYYWGLGTQVTVSS	low polyreactivity
QVQLVESGGGLVQAGGSLRLSCAASGFIFRYYAMGWYRQAPGKERELVAAISSRGGSTYYADSVKGRFTISRDNAKNTVYLQMNSLKPEDTAVYYCAKRGFYTDRDYWGQGTQVTVSS	high polyreactivity
QVQLVESGGGLVQAGGSLRLSCAASGSTFRLNAMGWYRQAPGKERELVAAISRSTGTTHYADSVKGRFTISRDNAKNTVYLQMNSLKPEDTAVYYCATDRAKWHKNGDLGYWGQGTQVTVSS	low polyreactivity
QVQLVESGGGLVQAGGRLRLSCAASGFISKYYAMGWSRQAQGKERELVASISRDGSTSYADSVKGRFTISRDNAKNTVYIQMNSLKPEDTAVYYCAAPSYRTRYYYWGQGTQVTVSS	high polyreactivity
QVQLVESGGGLVQAGGSLRLSCAASGRTFFPYAMGWYRQAPGKEREFVAAITKSDYSTYYADSVKGRFTISRDNAKNTVYLQKNSLKPEDNAVYYCNAGDTQIRFYYWGQGTQVTVSS	low polyreactivity
QVQLVESGGGLVQAGGSLRLSCAASGRIFSFYSMGWYRQAPAKERELVATISKRAGSTYYADSVKGRFTISRDNAKNTVYLQMNSLKPEDTAVYYCAARKWYYASSRWRDYWGQGTQVTVSS	high polyreactivity
QVQLVESGGGLVQAGGSLRLSCAASGRIFVKNAMGWYRQAPGKERELVAGISRGGSTYYADSVKGRFTISRDNAKNTVYLQMNSLKPEDTAVYYCATRNYGRGQFDYWGQGTQVTVSS	high polyreactivity
QVQLVESGGGLVQAGGSLRLSCAASGSIFRYNAMGWYRQAPGKERELVAAITSGDSTYYADSVKGRFTISRDNAKNTVYLQMISLKPEDTAVYYCAADDWRPFDGYYPLKSEREYWGQGTEVTVSS	low polyreactivity
QVQLVESGGGLFQAGGSLRLSCAASGGIFSLYAMGWYRQAPGTERELVAVISSTCSTHYADSVKGRFTISRDNAKKTVSLLMNSLKPEDTAVYYCNADARTSRKKFGYWGQGTQVTVSS	low polyreactivity
QVQLVESGGGLVQAGGSLRLSCAASGFIFTYNDMGWYRQAPGKERELVASISWDGGRTYYADSVKRRFTISRDNAKNTVYLQMNSLKPEDTADYYWDKRLGGSPIQARGDYWGQCTQVTVSS	low polyreactivity
QVQLVESGGGIVQAGGSLRLSCAASGSTFQTYVMGWYRQAPGKERELVAAISSGGSTNYADSVKGRFTISRDNAKNTVYLQMNSLKPEDTAVYYCAKRWPYFRRGKDGYWGQGTQVTVSS	low polyreactivity
QVQLVESGGGLVQAGGSLRLSCAASGSTFRRYAMGWYRQAPGKERELVAAIRQRGTSTYYADSVKGRFTISRDNAKNTVYLQMNSLKPEDTAVYYCAAGPSLWLFNSWGQGTQVTVSS	high polyreactivity
QVQLVESGGGLVQAGGSLRLSSAASGLTFRYYALGWYRQAPGKERELVAAITRRGSTYYADSVKGRFTISRDNAKNTVYLQMNSLKPEDTAVYYCATVTGFHSSPLRDLDYWGQGTQVTVSS	high polyreactivity
